Tests used:
[1] = target: T1, Protein S (OriGene) (UniProt P07225 42-676); assay: KinExA signal test on MYD1 Fc coated beads, Protein S probed with an anti-c-Myc antibody
T1 construct: Carries a c-Myc tag by the detection used
T1 sequence (looked up): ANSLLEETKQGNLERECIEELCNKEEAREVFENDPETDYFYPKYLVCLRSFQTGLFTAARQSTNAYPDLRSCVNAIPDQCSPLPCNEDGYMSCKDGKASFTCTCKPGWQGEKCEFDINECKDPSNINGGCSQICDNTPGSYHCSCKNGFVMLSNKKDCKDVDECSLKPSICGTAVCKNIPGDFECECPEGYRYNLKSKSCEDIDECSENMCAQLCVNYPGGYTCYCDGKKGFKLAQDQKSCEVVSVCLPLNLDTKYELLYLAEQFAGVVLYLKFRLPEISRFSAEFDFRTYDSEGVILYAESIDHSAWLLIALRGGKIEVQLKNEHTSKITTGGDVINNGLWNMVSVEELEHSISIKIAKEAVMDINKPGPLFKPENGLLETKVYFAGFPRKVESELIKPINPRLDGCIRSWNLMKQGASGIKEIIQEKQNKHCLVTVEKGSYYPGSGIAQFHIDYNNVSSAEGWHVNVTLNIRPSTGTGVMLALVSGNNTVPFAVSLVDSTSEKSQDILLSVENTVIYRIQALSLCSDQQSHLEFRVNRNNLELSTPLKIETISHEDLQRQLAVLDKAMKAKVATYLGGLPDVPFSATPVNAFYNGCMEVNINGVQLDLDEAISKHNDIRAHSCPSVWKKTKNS
Method: (§1) A KinExA 3200 instrument (Sapidyne Instruments Inc.) was used to measure equilibrium binding and association rate constants for the Gas6-Axl interactions. […] Adsorption coating of 200 mg of beads was performed using 45 μg of protein at room temp for 1 h. The protein solution was then removed and beads were blocked using PBS with 1% BSA for 2 h at room temp. Beads were stored in blocking buffer at 4° C. and used within two weeks. All binding reactions were carried out in phosphate buffered saline with 1 mg/ml BSA and 0.02% sodium azide.
To test binding of Protein S (OriGene) to MYD1, 700 μl of a 10 nM solution was flowed over the capture beads.

[2] = target: T2, mouse Gas6 (mouse, UniProt Q61592 46-674, limits assumed); assay: KinExA
T2 construct: Used both for the KinExA value against mouse Gas6 and for the endogenous Gas6 in the serum of the nude mice; also called Gas6 (in serum of mice)
T2 sequence (looked up): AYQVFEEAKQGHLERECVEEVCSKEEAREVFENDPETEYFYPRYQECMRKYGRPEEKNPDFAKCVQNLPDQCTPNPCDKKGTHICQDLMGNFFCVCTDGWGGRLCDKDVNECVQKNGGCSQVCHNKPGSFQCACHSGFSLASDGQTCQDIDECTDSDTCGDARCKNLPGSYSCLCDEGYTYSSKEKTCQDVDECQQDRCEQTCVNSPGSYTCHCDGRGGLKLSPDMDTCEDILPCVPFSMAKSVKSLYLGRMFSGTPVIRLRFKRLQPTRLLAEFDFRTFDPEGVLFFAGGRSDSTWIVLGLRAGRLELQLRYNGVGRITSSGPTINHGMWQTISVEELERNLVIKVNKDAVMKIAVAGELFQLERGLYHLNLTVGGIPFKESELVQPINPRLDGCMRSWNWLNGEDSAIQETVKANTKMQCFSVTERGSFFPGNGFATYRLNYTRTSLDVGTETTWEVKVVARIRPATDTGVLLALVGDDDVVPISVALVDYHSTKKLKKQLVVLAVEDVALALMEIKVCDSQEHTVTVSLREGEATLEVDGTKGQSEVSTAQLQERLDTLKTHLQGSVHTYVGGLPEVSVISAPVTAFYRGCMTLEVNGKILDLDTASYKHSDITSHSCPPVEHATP
Method: as §1
(§2) For equilibrium binding studies, three independent titrations were completed for each Axl Ig1 or Axl Fc fusion unless otherwise noted. […] Each sample was analyzed twice and data from the three independent equilibrium binding experiments were globally analyzed using n-curve analysis in the KinExA Pro 3.6.2 software (Sapidyne Instruments Inc.) to obtain the Kd value.

[3] = target: T2, mouse Gas6; assay: KinExA; column Kd(pM) mGas6
Method: as §1, §2

binding result [1]: no binding (tested: 10 nM)
Kd [2]: ~1 pM
Kd [3]: 1.1 pM
B1: MYD1 Fc (Fc fusion)
chain: APRGTQAEESPFVSNPGNITGARGLTGTLRCQLQVQGEPPEVHWLRDGQILELADSTQTQVPLGEDEQGDWIVASQLRITSLQLSDTGQYQCLVFLGHQTFVSQPGYVRLEGLPYFLEEPEDRTVAANTPFNLSCQAQGPPEPVDLLWLQDAVPLATAPGHGPQRSLHVPGLNKTSSFSCEAHNAKGVTTSRTATITVLPQQPRNLHLVSRQPTELEVAWTPGLSGIYPLTHCTLQAVLSNDGMGIQAGEPDPPEEPLTSQASVPPHQLRLGSLHPHTPYHIRVACTSSQGPSSWTHWLPVETPEGVPLGPPENISATRNGSQAFVHWQEPRAPLQGTLLGYRLAYQGQDTPEVLMDIGLRQEVTLELQGDGSVSNLTVCVAAYTAAGDGPWSLPVPLEAWRPGQAQPVHQLVKEPSTPAFS
notes: Disulfide-linked dimer from HEK cells; also the capture reagent on the KinExA beads; also called MYD1 Fc fusion; not shown: Fc domain of a human IgG1

Source: patent US20160266136A1 (Stanford University, published 2016)
